Here are results for one substance from PMC11551740.

For this assay, the target named is M.EcoGII (methyltransferase EcoGII) (Escherichia coli). The experiment in a line: SEC; 50-100 ug protein on Superdex 200 Increase 10/300 GL, 0.75 ml/min, 20 mM HEPES (pH 7.0 in the methods, pH 7.4 in the legend), 250 mM NaCl; molecular weight estimated from a calibration curve of LMW markers.

Take “M.EcoGII (methyltransferase EcoGII) (enzyme)”: the stoichiometry N (usually a count of units in the complex or per binding partner) was 2.
